{
  "source": "patent US20230094463A1",
  "about": "“ANTIBODIES THAT DISRUPT THE INTERACTION OF GAL3 AND INSULIN RECEPTOR OR INTEGRINS AND METHODS OF USE THEREOF” (TrueBinding, Inc., priority 2019, published 2023)",
  "key": {"[1]": {"system": "high-fat diet fed diabetic C57BL6J mice", "test": "High-fat diet fed mouse model of type II diabetes", "type": "in vivo", "conditions": "HFD-fed mice; for liver steatosis (H&E stained liver sections): 10 mg/kg", "excerpt": "To evaluate whether Gal3-INSR blockade by Gal3-targeted antibodies functionally impacted diabetes biology, a mouse model of type II diabetes was employed. Male C57BL6J mice were purchased from Jackson Lab and fed with high fat diet (HFD, 60% kcal from fat, Research Diet, Catalog #12492i) starting from 7-week old for 8 weeks, 10 or 16 weeks. Age-matched male C57BL6J mice fed with standard chow diet were used as control mice. […] Mice were fed with standard chow diet or HFD ad libitum except when fasted as indicated in the experiments. Glucose tolerance test (GTT) and insulin tolerance test (ITT) were done at 15 weeks and 16 weeks old (8 weeks and 9 weeks after HFD), respectively, to confirm the insulin resistant and glucose intolerant phenotype. For GTT, mice were fasted for 6 hours by transferring mice to clean cage with no food or faeces but with drinking water and then injected with 2 g/kg glucose (Sigma) and blood was drawn to measure glucose levels at 0, 15, 30, 60, 90, and 120 minutes after glucose injection. For ITT, mice were fasted for 6 hours, and then injected with 0.75 IU/kg body weight of Humalin-R (Eli Lilly) intraperitoneally. Blood from the tail was measured for glucose content using HemoCue Glucose 201 Analyzer at 0, 15, 30, 45, 60 minutes. Based on area under the curve (AUC) from ITT, HFD fed mice were randomized into two groups: human IgG4 isotype group and IMT001-4 treated group. At 17 weeks of age, mice were given antibody treatments by intraperitoneal injection twice a week for 5 doses before ITT and GTT were done at 19 weeks old and 20 weeks old. Human IgG4 isotype and IMT001-4 were dosed at 10 mg/kg with 100 μl/mouse and BM was dosed at […] with 100 μl/mouse. Treatments continued until the mice were sacked at 21 weeks old. The mice body weight was monitored one week after the mice arrived at the facility. Body weight was measured once a week using a balance. Mouse blood was collected using cardiac puncture. Liver, gastrocnemius muscle, and posterior subcutaneous white adipose fat were collected and weighed.\nTo further evaluate the ability of IMT001-4 to impact the pathological sequalae of diabetes, liver sections from animals treated as in FIGS. 3-5 were examined for signs of fat accumulation, e.g., steatosis. Briefly, liver specimens were fixed in 4% paraformaldehyde for 24 hours, placed in 70% EtOH for 3 days, embedded into paraffin and 10 μm sections were cut and mounted to glass slides and stained with hematoxylin and eosin and visualized on a Revolve microscope at 40× magnification. Images were evaluated by ImageJ to quantitate the extent of steatosis.\nTo further characterize the liver disease observed in histological samples, serum markers of liver dysfunction were evaluated in animals treated as above […]. Briefly, mouse plasma samples were obtained from whole blood sample in lithium heparin collection tubes. 100 μl of serum was dispensed into the rotor of a VetScan VS2 Blood Chemistry Analyzer (Abaxis) through the sample port. ALT levels were determined as per the manufacturer's specification. […] Accordingly, the Gal3-targeted Gal3-INSR blocking antibody, IMT001-4, has utility in reducing serum liver enzymes."}, "[2]": {"system": "HFD-fed Db/Db (Bks-Db) mice", "test": "HFD-fed Db/Db mouse model of advanced type II diabetes", "quoted_text": "In order to investigate the effect of therapeutic anti-GAL-3 antibodies on a severe case of type II diabetes, a mouse model using High Fat Diet (HFD)-fed Db/Db mice was implemented. Four-weeks-old male Bks-Db mice (000642) obtained from Jackson lab were fed with 60% kcal HFD (Research Diet, 12492i) for eight weeks. Control animals (male C57BL6/J (000662), Jackson lab) were fed normal chow diet. […] Animals were randomized based on the body composition measured by employing EchoMRI-500™ (EchoMRI). […] Wild type animals were used as a control (Healthy) group. The animals were dosed for twelve weeks. […] The fasting blood glucose was measured as described in Example 15. Briefly, the mice were fasted for 4-6 hours in clean cages with water and no food. Blood from the tail was diluted 2.5 times before using HemoCue Glucose 201 Analyzer and cuvettes (Mercedes Scientific 110706) to measure the blood glucose level."}, "[3]": {"conditions": "10 mg/kg i.p. twice a week, vs isotype control"}},
  "data": [
    {"molecule": "TB001: Gal3-targeted Gal3-INSR blocking anti-Gal3 antibody; IMT001-4 used with human IgG4 isotype control (antibody, V domains shown) VH: QVQLVQSGSELKKPGASVKVSCKASGYTFTNYGMNWVRQAPGQGLKWMGWINTNTGEPTYVEEFTGRFVFSLETSVSTAYLQISSLKAEDTAVYFCAPYDNFFAYWGQGTTVTVSS VL: DIVLTQSPLSLPVTPGEPASISCRSSKSLLYKDGKTYLNWFLQKPGQSPQLLIYLMSTHASGVPDRFSGSGSGTDFTLKISRVEAEDVGVYYCQQLVDYPLTFGGGTKLEIK", "values": [
      {"measurement": "weight gain", "setting": "[1]; 10 mg/kg i.p. twice a week, 19 day study", "result": "did not gain any appreciable weight"},
      {"measurement": "liver steatosis (H&E stained liver sections)", "setting": "[1]; 10 mg/kg i.p. twice a week", "result": "negligible levels of steatosis"},
      {"measurement": "liver steatosis (H&E stained liver sections)", "setting": "[1]; 10 mg/kg i.p. twice a week, listed as IMT001-4 (TB001)", "result": "absence thereof"},
      {"measurement": "glucose reduction in response to insulin challenge (insulin tolerance test)", "setting": "[1]; [3]", "result": "glucose clearance indistinguishable from non-diabetic mice fed a normal diet"},
      {"measurement": "response to glucose challenge (glucose tolerance test)", "setting": "[1]; [3]", "result": "cleared glucose significantly more rapidly"},
      {"measurement": "serum liver enzyme ALT levels", "setting": "[1]; relative to HFD-fed isotype-control treated mice", "result": "significantly decreased"},
      {"measurement": "liver steatosis by image quantification (ImageJ)", "setting": "[1]; relative to isotype-control treated animals", "result": "complete reversion of disease state"},
      {"measurement": "change in levels of fasting blood glucose", "setting": "[2]; compared to PBS-treated groups", "result": "lack of change"},
      {"measurement": "survival", "setting": "[2]; dosed once weekly for twelve weeks", "result": "significantly prolonged survival"}
    ]}
  ]
}
